Reference: IntAct's records for PubMed 17403664

B1: Differentially expressed in FDCP 6 (Mus musculus), Q8C2K1 (parent)
chain: MALRKELLKSIWYAFTALDVEKSGKVSKSQLKVLSHNLYTVLNIPHDPVALEEHFRDDDDGPVSSQGYMPYLNKYILDKVEEGAFVKEHFDELCWTLTAKKNYRADGIGSSPLSNQDAFRLWCLFNFLSEDKYPLIMVPDEVEYLLKKLLGSLSLEMGLGELEELLAQDAQSAQTAVGLSVWQFLELFNSGRCLRGVGRDSLSMAIQEVYQELIQDVLKQGYLWKRGHLRRNWAERWFQLQPSSLCYFGSEECKEKRGTIPLDAHCCVEVLPDREGKRCMFCVKTASRTYEMSASDTRQRQEWTAAIQTAIRLQAEGKTSLHKDLKQKRREQREQRERRRAAKEEELLRLQQLQEEKERKLQELELLQEAQRQAERLLQEEEERRRSQHKELQQALEGQLREAEQARASMQAEMELKKEEAARQRQRIAELEEMQERLQEALQLEVKARRDEEAVRLAQTRLLEEEEEKLKQLMHLKEEQERYIERAQQEKQELQQEMALQSRSLQHAQQQLEEVRQNRQRADEDVEAAQRKLRQASTNVKHWNVQMNRLMHPIEPGDKRPTTSSSFTGFQPPPLARRDSSLKRLTRWGSQGNRTLSVNSSEQKSLNGGDETPILALASQEEKLDPAPGN
partner: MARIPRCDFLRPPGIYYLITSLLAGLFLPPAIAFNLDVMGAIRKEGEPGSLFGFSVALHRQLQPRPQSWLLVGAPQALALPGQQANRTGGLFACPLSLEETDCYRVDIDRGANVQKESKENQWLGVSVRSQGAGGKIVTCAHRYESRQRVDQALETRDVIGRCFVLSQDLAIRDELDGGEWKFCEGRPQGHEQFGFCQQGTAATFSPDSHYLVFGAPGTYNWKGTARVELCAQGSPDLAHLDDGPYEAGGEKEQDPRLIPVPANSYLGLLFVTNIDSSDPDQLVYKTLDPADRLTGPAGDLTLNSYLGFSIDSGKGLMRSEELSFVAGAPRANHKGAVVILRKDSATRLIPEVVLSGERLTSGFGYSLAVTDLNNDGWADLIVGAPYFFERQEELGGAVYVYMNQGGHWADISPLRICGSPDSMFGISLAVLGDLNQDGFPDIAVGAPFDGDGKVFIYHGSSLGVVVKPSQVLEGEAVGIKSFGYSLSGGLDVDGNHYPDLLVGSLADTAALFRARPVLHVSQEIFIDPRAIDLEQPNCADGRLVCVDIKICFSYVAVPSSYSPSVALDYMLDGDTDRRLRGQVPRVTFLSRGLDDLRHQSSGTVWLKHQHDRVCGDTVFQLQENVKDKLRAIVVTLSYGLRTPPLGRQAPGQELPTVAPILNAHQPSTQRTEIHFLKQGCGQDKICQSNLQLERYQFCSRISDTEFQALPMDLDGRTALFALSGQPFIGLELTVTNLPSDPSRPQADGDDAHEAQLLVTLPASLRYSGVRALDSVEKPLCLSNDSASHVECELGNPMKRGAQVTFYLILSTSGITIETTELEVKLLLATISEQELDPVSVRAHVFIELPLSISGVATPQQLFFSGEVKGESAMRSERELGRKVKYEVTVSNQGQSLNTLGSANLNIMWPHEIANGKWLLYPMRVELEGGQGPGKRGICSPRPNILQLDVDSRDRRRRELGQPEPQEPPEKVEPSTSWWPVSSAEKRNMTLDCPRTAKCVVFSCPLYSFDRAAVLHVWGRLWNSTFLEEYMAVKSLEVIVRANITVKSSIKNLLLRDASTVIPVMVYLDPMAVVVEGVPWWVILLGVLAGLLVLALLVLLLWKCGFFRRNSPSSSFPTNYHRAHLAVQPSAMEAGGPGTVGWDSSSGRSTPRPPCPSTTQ

Variants of: B1
Conditions: with Itga7, Q61738-6
With Y210E the “effect of a mutation on the interaction” value was “decreasing interaction”.
